The test concerns the target HCMV trimeric gH/gL recombinant protein (human cytomegalovirus, strain Merlin | T4 phage) (UniProt F5HCH8). The test is described as follows: native gel or EMSA. (In general: Mobility shift assays separate free from complexed probe on a gel.)

The term stoichiometry N denotes the number of molecules, sites or subunits per partner or assembly.

For “HCMV trimeric gH/gL recombinant protein (from UniProt F5HCH8;Q6SW67)”, the stoichiometry N came out at 3.

Values taken from article PMC6651862.
